Test results reported in US20140154248A1.
Where two headings read alike, the source gives them in different places.

What was measured:
Test in all cases: cell-based or functional assay
transferrin receptor = transferrin receptor (UniProt P02786)
human mesothelin (human) [1] = molecular target: human mesothelin (human) (UniProt Q13421)
human mesothelin (human) [2] = molecular target: human mesothelin (human) (UniProt Q13421); remark: listed apart in the source

Chain of UniProt Q13421 (Q13421 other isoform, or with tags, fused parts or gaps): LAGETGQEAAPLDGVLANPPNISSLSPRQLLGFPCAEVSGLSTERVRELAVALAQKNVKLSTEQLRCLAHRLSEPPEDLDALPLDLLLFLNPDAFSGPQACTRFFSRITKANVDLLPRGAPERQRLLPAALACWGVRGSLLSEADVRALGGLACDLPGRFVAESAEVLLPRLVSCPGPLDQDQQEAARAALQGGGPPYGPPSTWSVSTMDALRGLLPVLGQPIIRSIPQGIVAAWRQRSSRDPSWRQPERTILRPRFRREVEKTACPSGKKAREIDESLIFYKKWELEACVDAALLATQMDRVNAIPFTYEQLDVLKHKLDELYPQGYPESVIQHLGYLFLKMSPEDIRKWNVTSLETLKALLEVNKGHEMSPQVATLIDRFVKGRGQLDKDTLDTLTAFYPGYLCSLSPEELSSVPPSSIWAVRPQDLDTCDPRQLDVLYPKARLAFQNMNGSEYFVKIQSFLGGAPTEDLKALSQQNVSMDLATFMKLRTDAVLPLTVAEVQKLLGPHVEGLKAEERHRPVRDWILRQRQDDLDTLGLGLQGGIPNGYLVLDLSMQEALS
Chain of UniProt P02786 (P02786 whole entry): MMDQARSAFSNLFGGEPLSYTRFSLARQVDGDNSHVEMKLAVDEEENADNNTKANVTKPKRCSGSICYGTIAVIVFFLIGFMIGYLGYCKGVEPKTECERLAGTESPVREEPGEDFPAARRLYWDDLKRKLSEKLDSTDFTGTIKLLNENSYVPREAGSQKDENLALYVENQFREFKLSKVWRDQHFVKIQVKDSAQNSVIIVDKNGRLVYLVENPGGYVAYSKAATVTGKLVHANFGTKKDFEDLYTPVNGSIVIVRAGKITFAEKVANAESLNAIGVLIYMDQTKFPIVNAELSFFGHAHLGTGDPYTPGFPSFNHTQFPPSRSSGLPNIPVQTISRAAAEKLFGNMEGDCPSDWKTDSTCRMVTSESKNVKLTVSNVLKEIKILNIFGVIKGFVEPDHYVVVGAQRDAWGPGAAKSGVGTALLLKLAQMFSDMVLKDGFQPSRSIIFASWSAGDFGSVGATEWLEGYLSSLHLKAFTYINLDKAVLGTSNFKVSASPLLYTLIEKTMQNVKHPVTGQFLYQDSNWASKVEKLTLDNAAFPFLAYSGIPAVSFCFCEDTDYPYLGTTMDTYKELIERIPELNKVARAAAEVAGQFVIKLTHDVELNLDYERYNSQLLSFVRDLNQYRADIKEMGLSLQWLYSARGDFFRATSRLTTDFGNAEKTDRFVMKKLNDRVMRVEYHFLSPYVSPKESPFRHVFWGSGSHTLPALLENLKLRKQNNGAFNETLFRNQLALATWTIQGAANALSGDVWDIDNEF

Substance	reduction of viability of patient cells NCI-M-02 and NCI-M-03 (crystal violet) (transferrin receptor)	decrease in viability of patient cells NCI-M-02 and NCI-M-03 (crystal violet) (human mesothelin (human) [1])	EC50 (ng/ml), cytotoxicity WST-8, A431/K5 cells (human mesothelin (human) [2])	EC50 (ng/ml), cytotoxicity WST-8, A1847 cells (human mesothelin (human) [2])	EC50 (ng/ml), cytotoxicity WST-8, HAY cells (human mesothelin (human) [2])	EC50 (ng/ml), cytotoxicity WST-8, KB31 cells (human mesothelin (human) [2])	EC50 (ng/ml), cytotoxicity WST-8, L55 cells (human mesothelin (human) [2])	EC50 (ng/ml), cytotoxicity WST-8, M30 cells (human mesothelin (human) [2])	EC50 (ng/ml), cytotoxicity WST-8, OVACR-8 cells (human mesothelin (human) [2])	decrease in viability of patient cells NCI-M-02 and NCI-M-03 (crystal violet) (human mesothelin (human) [2])	decrease in viability of patient cells NCI-M-16 and NCI-M-19 (crystal violet) (human mesothelin (human) [2])
HB21 (anti-transferrin receptor/PE38)	90%	–	–	–	–	–	–	–	–	–	–
SS1P (SS1 (dsFv)-PE38) (from UniProt P11439 278-638)	–	> 60%	0.17 ng/mL	4.59 ng/mL	4.79 ng/mL	0.47 ng/mL	5.32 ng/mL	2.56 ng/mL	1.4 ng/mL	> 65%	> 75%
